Results taken from FireProtDB (doi:10.1021/bi701365e).
Several values for one entry are separate records, joined by “and”; a condition that tells them apart may be missing. Identical values can stand only once.

Conditions: Helicobacter pylori (strain ATCC 700392 / 26695), pH 9, Thermal, EPPS 50 mM, reversible: Yes (>80%), whole UniProt chain shown

B1: Flavodoxin wild type, O25776 (protein)
chain: MGKIGIFFGTDSGNAEAIAEKISKAIGNAEVVDVAKASKEQFNSFTKVILVAPTAGAGDLQTDWEDFLGTLEASDFATKTIGLVGLGDQDTYSETFAEGIFHIYEKAKAGKVVGQTPTDGYHFEASKAVEGGKFVGLVIDEDNQDDLTDERISKWVEQVKGSFA
For B1, which “unfolding enthalpy (van 't Hoff)” value (DSC, transition: 3) is on record?
Its value is 29 kcal/mol and 50 kcal/mol.

And the “unfolding enthalpy (van 't Hoff)” value (Fluorescence, transition: 4)?
Its value is 44 kcal/mol.
